These are literature values, as cited in publication PMC9974451.

pKd: −log10 of the molar value.

This series deals with Ubc9 (Homo sapiens) (UniProt P63279). As to the kind of experiment: differential scanning fluorometry. A general note: DSF heats the sample and reads unfolding from a dye or from intrinsic fluorescence.
Sequence of Ubc9 (Homo sapiens) (P63279 2-158): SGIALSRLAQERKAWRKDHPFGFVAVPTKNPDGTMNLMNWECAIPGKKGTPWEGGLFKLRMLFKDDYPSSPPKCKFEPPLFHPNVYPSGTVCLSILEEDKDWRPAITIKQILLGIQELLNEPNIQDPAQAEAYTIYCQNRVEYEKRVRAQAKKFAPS

Sequence of importin 13 (O94829 whole entry): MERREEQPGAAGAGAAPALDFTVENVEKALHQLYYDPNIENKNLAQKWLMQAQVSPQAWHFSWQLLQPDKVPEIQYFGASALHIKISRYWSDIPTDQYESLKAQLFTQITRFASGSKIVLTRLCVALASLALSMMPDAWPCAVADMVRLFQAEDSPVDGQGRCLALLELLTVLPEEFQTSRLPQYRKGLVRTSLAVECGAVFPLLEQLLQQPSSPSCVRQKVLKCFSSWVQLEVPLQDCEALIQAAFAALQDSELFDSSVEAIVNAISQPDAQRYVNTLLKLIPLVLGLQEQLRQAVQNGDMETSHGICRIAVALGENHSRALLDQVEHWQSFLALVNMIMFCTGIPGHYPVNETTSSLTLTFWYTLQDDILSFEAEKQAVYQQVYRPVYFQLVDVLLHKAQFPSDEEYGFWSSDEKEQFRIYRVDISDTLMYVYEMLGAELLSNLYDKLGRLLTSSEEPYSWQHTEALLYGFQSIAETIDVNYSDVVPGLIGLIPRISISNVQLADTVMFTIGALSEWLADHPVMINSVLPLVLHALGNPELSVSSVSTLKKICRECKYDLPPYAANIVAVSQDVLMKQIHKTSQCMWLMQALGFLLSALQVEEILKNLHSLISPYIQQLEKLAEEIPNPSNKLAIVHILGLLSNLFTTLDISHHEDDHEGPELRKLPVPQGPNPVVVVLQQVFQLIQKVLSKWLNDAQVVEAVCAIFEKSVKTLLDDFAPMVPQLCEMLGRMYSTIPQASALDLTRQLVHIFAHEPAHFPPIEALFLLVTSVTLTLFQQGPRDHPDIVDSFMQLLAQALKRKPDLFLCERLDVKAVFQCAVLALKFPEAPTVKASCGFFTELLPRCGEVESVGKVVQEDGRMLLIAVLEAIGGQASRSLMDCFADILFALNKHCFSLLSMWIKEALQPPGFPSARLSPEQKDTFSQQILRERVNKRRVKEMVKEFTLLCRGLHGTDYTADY

Turning to importin 13 (from UniProt O94829), the negative logarithm of the Kd (pKd) (as a rule, the negative decadic logarithm of the Kd, by convention in mol/L) was 6.43.
